Data taken from patent publication US7612188.

Biological target: tissue factor (Innovin, Dade) (UniProt P13726)
Chain of UniProt P13726 (P13726 33-295): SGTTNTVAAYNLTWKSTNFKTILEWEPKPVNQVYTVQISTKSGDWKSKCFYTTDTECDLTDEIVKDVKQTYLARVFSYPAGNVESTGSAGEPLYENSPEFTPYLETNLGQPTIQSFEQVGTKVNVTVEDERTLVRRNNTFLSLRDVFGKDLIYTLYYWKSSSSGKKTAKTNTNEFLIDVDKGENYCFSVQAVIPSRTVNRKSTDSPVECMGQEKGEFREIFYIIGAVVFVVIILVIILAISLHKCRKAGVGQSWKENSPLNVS

| Substance | competition clotting assay with FFR-VIIa (0 to 3.5 nM) and Innovin, compared with VIIa-Q11E33 | competition clotting assay with active site modified VIIa (0-3.2 nM), compared with the Q11E33 mutant |
| --- | --- | --- |
| Human factor VIIa-T9Q11E33 | Human factor VIIa-T9Q11E33 exhibited a severe loss of competitive binding affinity | – |
| factor VII with leucine for phenylalanine at position 5 and the Q11E33 mutations | – | had much lower activity than the Q11E33 mutant |
